From patent US20240376195A1 (BEIGENE, published 2024) come the findings set out here.

Positions count from the first letter of the chain named.

As a reminder, the EC50 is the concentration needed to bring the measured effect to its halfway point. Usually Kd stands for the equilibrium constant for the complex coming apart. A higher Kd goes with lower affinity. For orientation: koff means the rate constant with which the complex falls apart. A lower koff goes with a long-lived complex. In general, kon refers to the second-order rate constant of association. As a reminder, the IC50 is the concentration that inhibits the measured activity by half.

In assay [1] the target is T1, NKp30 (form in the assay not stated) (UniProt O14931 19-135, limits assumed).
T1 construct: It is inferred from BGA1831 being an anti-NKp30 antibody
T1 sequence (looked up): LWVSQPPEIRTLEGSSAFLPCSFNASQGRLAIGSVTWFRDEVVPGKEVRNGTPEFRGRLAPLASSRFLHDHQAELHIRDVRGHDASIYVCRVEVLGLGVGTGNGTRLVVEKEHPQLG
Description: flow cytometry, y axis NKp30 (MFI); cells not named in the legend or on the sheet. (In general: Flow cytometry measures light scatter and fluorescence of single cells or particles in a stream.)

Assay [2] addresses T2, his-tagged human NKp30 (human, UniProt O14931 19-135).
T2 construct: Analyte of the SPR assay; not shown: his tag
T2 sequence: T1 sequence (looked up)
The experiment in a line: SPR (BIAcore T-200), antibody captured by anti-mouse IgG, his-tagged human NKp30 as analyte. An excerpt: The NKp30 antibodies with high binding activities in ELISA and FACS, as well as with potent functional activities in the cell-based assays (described in Example 1 above) were characterized for their binding kinetics by SPR assays using BIAcore™ T-200 (GE Life Sciences). Briefly, an anti-mouse IgG antibody was immobilized on an activated CM5 biosensor chip (Cat. No.: BR100530, GE Life Sciences). Purified NKp30 murine antibodies were flowed over the chip surface and captured by the anti-mouse IgG antibody. Then a serial dilution (0.098 nM to 25 nM) of his-tagged human NKp30 was flowed over the chip surface and changes in surface plasmon resonance signals were analyzed to calculate the association rates (kₒₙ) and dissociation rates (koff) by using the one-to-one Langmuir binding model (BIA Evaluation Software, GE Life Sciences). The equilibrium dissociation constant (KD) was calculated as the ratio koff/kₒₙ.
(In general: SPR reads the build-up and loss of mass on a sensor chip optically.)

The next assay has as its target T3, NKp30-mIgG2a (human; mouse, UniProt O14931 19-135).
T3 construct: also called soluble NKp30; NKp30-mIgG2a fusion protein; not shown: Fc domain of mouse IgG2a, fused to the C-terminus of the NKp30 ECD
T3 sequence: T1 sequence (looked up)
Description: flow cytometry blocking assay; binding of NKp30-mIgG2a to B7-H6 on HCT116/B7-H6 cells in the presence of serially diluted antibody. On the procedure:
A schematic diagram showing the inhibition of NKp30/B7-H6 interactions by anti-NKp30 Ab. The binding of soluble NKp30 (NKp30-mIgG2a fusion protein) to B7-H6-expressing HCT116 cells (HCT116/B7-H6) was determined by flow cytometry. The blockade of NKp30/B7-H6 interaction was quantitatively measured by adding serially diluted BGA1833/IgG1. Results are shown in mean±SD of duplicates.
(Joyce et al., 2011 PNAS 108:6223-6228). […] In addition, these two residues were previously determined to be important for NKp30/B7-H6 interaction in a structural study (Li et al., J Exp Med. 2011 208:703-714). […] For this assay, a B7-H6 stably transduced cell line HCT116/B7-H6 was incubated with NKp30-mIgG2a in the presence of serially diluted BGA1833, followed by detection with […].

The target of assay [3] is T2, his-tagged human NKp30. Description: SPR, antibody captured on anti-human Fc surface; NKp30 analyte not named in Example 4. An excerpt: Further engineered versions of humanized monoclonal antibodies were derived from the mutation process described as above and characterized in detail. […] For affinity determination, antibodies were captured by anti-human Fc surface, and used in the affinity assay based on surface plasmon resonance (SPR) technology. All the humanization antibodies shown above were also confirmed for functional activities on primary human immune cells isolated from healthy donors (described in Example 7 below).

Assay [4] deals with T4, full-length human NKp30 on NK92MI cells (human, UniProt O14931 19-201).
T4 construct: Full-length human NKp30 over-expressed on NK92MI cells; also called huNKp30; native NKp30
T4 sequence: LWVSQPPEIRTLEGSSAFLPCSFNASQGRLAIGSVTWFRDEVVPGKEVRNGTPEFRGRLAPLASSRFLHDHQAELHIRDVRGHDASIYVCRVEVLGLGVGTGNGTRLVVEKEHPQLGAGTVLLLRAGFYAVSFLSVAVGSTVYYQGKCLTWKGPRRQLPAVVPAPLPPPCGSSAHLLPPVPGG
The experiment in a line: flow cytometry on live NK92MI cells over-expressing human NKp30, goat anti-human IgG detection. The protocol: To evaluate the binding activity of anti-NKp30 antibodies to native NKp30 on living cells, NK92MI cells were transfected to over-express human NKp30. Live NK92mi/NKp30 expressing cells were seeded in 96-well plates and were incubated with a serial dilution of anti-NKp30 antibodies. Goat anti-Human IgG was used as secondary antibody to detect antibody binding to the cell surface. EC₅₀ values for dose-dependent binding to human native NKp30 were determined by fitting the dose-response data to the four-parameter logistic model with GraphPad Prism™.

B1: mu183 (antibody, V domains shown)
VH: QVQLQQPGSVLVRPGASVKLSCKASGYTFTSSWMHWAKQRPGQGLEWIGEIHPNRDNTNYNEKFKGKATLTVDTSSSTAYVDLSSLTSEDSAVYYCARSYYDYGGAYFDSWGQGTTLTVSS
VL: QIVLTQSHKFMSTSVGDRVSITCKASQDVSTAVAWYQQKPGQSPKLLIYAASYRHIGVPDRFTGSGSGTDFTFTISSVQAEDLAVYYCQQHYSNPFTFGSGTKLEIK
notes: Murine hybridoma antibody, purified on Protein A; also called murine anti-NKp30 antibody mu183
For the molecule B1, in assay [1], the EC50 was 0.263 µg/mL. Moreover, in the assay with his-tagged human NKp30 [2], the Kd came to 0.132 nM, the koff was determined as 0.00021 s⁻¹ and the kon is 1.59e+06 M⁻¹ s⁻¹. Moreover, the IC50 with NKp30-mIgG2a came out at 0.169 µg/mL.

B2: ch183 (antibody, V domains shown)
VH: B1 VH
VL: B1 VL
notes: not shown: human immunoglobulin kappa constant region
In the assay with his-tagged human NKp30 [3], B2 had a Kd of 0.143 nM, a koff of 0.000318 s⁻¹ and a kon of 2.22e+06 M⁻¹ s⁻¹. In assay [4], this molecule registered an EC50 of 1.55 nM.

B3: BGA1833/IgG1 (antibody)
heavy: not shown
light: QIQLTQSPSSLSASVGDRVTITCKASQDVSTAVAWYQQKPGKAPKLLIYAASYRHIGVPSRFSGSGSGTDFTLTISSLQPEDFATYYCQQHYSNPFTFGGGTKVEIKRTVAAPSVFIFPPSDEQLKSGTASVVCLLNNFYPREAKVQWKVDNALQSGNSQESVTEQDSKDSTYSLSSTLTLSKADYEKHKVYACEVTHQGLSSPVTKSFNRGEC
notes: BGA1833 with wild-type human IgG1 heavy chain; also called BGA1833 with wt IgG1
On to B3, for which the concentration for half-maximal inhibition (IC50) in the assay with NKp30-mIgG2a stood at 0.144 µg/mL.

B4: BGA1832 (antibody, human IgG1, kappa, V domains shown)
VH: QVQLVQSGAEVKKPGASVKVSCKASGYTFTSSYMHWVRQAPGQGLEWMGEIHPNRDNTNYNEKFKGRVTMTVDTSTSTVYMELSSLRSEDTAVYYCARSYYDYGGAYFDAWGQGTLVTVSS
VL: DIQLTQSPSSLSASVGDRVTITCKASQDVSTAVAWYQQKPGKAPKLLIYAASYRHIGVPSRFSGSGSGTDFTLTISSLQPEDFATYYCQQHYSNPFTFGGGTKVEIKR
In the assay with his-tagged human NKp30 [3], B4 came in with a dissociation constant Kd of 0.213 nM, a koff of 0.000331 s⁻¹ and a kon of 1.55e+06 M⁻¹ s⁻¹.

B5: BGA1831 (antibody, human IgG1, kappa, V domains shown)
VH: B4 VH with E10V, K12V, Y33W, V37A, M48I, V68A, M70L, V79A, A110S
VL: B4 VL with D1Q, Q3V, A43S, L73F
notes: also called humanized anti-NKp30 Ab BGA1831
In the assay with his-tagged human NKp30 [3], B5 returned a Kd of 0.198 nM, a koff of 0.000377 s⁻¹ and a kon of 1.91e+06 M⁻¹ s⁻¹. In assay [4], this molecule displayed an EC50 of 1.26 nM.
